Experimental data published in publication PMC4928834.
Values belong to the substance of their own block, whether it stands above or below them.

Key:
[1] = biological target: soluble part of FloA (flotillin A) with Strep-tag (B. subtilis) (UniProt P54466); assay: SEC; FloAstrep after Strep-Tactin on Superose 6 10/300 GL, 0.5 ml/min, 100 mM Tris-Cl, 150 mM NaCl, pH 7.5
P54466 = assay: SEC; HMW fraction of FloA-Strep run again on gel filtration undiluted, 3 fold and 5 fold diluted; peak areas measured
[2] = biological target: soluble part of FloA (flotillin A) with 6xHis tag (B. subtilis) (UniProt P54466); assay: SEC; FloA6His after Ni-NTA on HiLoad 26/600 Superdex 200 pg, 1.5 ml/min, 20 mM HEPES, 200 mM NaCl, 20 mM MgCl2, 20 mM KCl, pH 7.5

- stoichiometry N [1]: 4
Substance: soluble part of FloA (flotillin A) with Strep-tag (from UniProt P54466 56-331) (domain or fragment)

Substance: soluble part of FloA (flotillin A) with Strep-tag
- percent of the protein in the HMW fraction (5-fold diluted) (P54466): 82% are in the HMW fraction and 12% in the LMW peak
- percent of the protein in the HMW fraction (undiluted or 3-fold diluted) (P54466): about 90% of the proteins are in the HMW fraction
- percent of the protein in the LMW peak (5-fold diluted) (P54466): 82% are in the HMW fraction and 12% in the LMW peak

- stoichiometry N [2]: 2
Substance: soluble part of FloA (flotillin A) with 6xHis tag (from UniProt P54466 56-331) (domain or fragment)
